This passage reports binding signal results from paper PMC6555819, “Comprehensive study of nuclear receptor DNA binding provides a revised framework for understanding receptor specificity”.

B1: NRC3_random_hg19_258_o1 (dsDNA)
DNA 1: GCGTAAGATGGCAGGTGCCCAGAGCTAAGCTTTGATGCGATTGACAGCGTAGAATGAAGG
DNA 2: CCTTCATTCTACGCTGTCAATCGCATCAAAGCTTAGCTCTGGGCACCTGCCATCTTACGC
B2: NRC3_random_hg19_12_o1 (dsDNA)
DNA 1: GCTTCCAGAATCAGACAATCACTGGGCTTGAACCAGGCGATTGACAGCGTAGAATGAAGG
DNA 2: CCTTCATTCTACGCTGTCAATCGCCTGGTTCAAGCCCAGTGATTGTCTGATTCTGGAAGC
B3: NRC3_wobSeed134_DR5_G11T_o1 (dsDNA)
DNA 1: GCGCTGCTAGTTCAACTGATGGTCAGCTAAAGCTCGGCGATTGACAGCGTAGAATGAAGG
DNA 2: CCTTCATTCTACGCTGTCAATCGCCGAGCTTTAGCTGACCATCAGTTGAACTAGCAGCGC
B4: NRC3_random_hg19_287_o1 (dsDNA)
DNA 1: GCTCACTCAGAAGAGCAGAGCGACAGTGAATCTGAGGCGATTGACAGCGTAGAATGAAGG
DNA 2: CCTTCATTCTACGCTGTCAATCGCCTCAGATTCACTGTCGCTCTGCTCTTCTGAGTGAGC
B5: NRC3_wobSeed26_DR1_A14T_o1 (dsDNA)
DNA 1: GCTCTAGTTGGTCTAAGGTCACACACTCGAAATGCGGCGATTGACAGCGTAGAATGAAGG
DNA 2: CCTTCATTCTACGCTGTCAATCGCCGCATTTCGAGTGTGTGACCTTAGACCAACTAGAGC
B6: NRC3_random_hg19_143_o1 (dsDNA)
DNA 1: GCCAAGAATCAGACTCTTAAGTAGATGCCTGTAGCTGCGATTGACAGCGTAGAATGAAGG
DNA 2: CCTTCATTCTACGCTGTCAATCGCAGCTACAGGCATCTACTTAAGAGTCTGATTCTTGGC
B7: NRC3_random_hg19_424_o1 (dsDNA)
DNA 1: GCGCCTTCTCTACAGGGCATACAGACTGACATTGAGGCGATTGACAGCGTAGAATGAAGG
DNA 2: CCTTCATTCTACGCTGTCAATCGCCTCAATGTCAGTCTGTATGCCCTGTAGAGAAGGCGC
B8: NRC3_wobSeed122_DR5_C24G_o1 (dsDNA)
DNA 1: GCGCTAGTTGGTCAGTAAAAGGTGACACACCGGTCGGCGATTGACAGCGTAGAATGAAGG
DNA 2: CCTTCATTCTACGCTGTCAATCGCCGACCGGTGTGTCACCTTTTACTGACCAACTAGCGC
B9: NRC3_random_hg19_50_o1 (dsDNA)
DNA 1: GCTGAAGAGTTTCTAACTCTTTGTTCTTGAATCAAAGCGATTGACAGCGTAGAATGAAGG
DNA 2: CCTTCATTCTACGCTGTCAATCGCTTTGATTCAAGAACAAAGAGTTAGAAACTCTTCAGC
B10: NRC3_random_hg19_124_o1 (dsDNA)
DNA 1: GCTCAGTTCCTCTGCAGCCAACCAGTCTTGGTGCCTGCGATTGACAGCGTAGAATGAAGG
DNA 2: CCTTCATTCTACGCTGTCAATCGCAGGCACCAAGACTGGTTGGCTGCAGAGGAACTGAGC
B11: NRC3_random_hg19_448_o1 (dsDNA)
DNA 1: GCAGAAGAAGACCAAAGTATTCCCTCACTGCCTATGGCGATTGACAGCGTAGAATGAAGG
DNA 2: CCTTCATTCTACGCTGTCAATCGCCATAGGCAGTGAGGGAATACTTTGGTCTTCTTCTGC
B12: NRC3_wobSeed109_DR4_A16T_o1 (dsDNA)
DNA 1: GCCGTCCAAGGTCATTGGAGGTCAGTGAAGACAGATGCGATTGACAGCGTAGAATGAAGG
DNA 2: CCTTCATTCTACGCTGTCAATCGCATCTGTCTTCACTGACCTCCAATGACCTTGGACGGC
B13: NRC3_wobSeed116_DR4_A21T_o1 (dsDNA)
DNA 1: GCAGAATGAGGTTACCAAAGTTCAGGGAAACGCTTGGCGATTGACAGCGTAGAATGAAGG
DNA 2: CCTTCATTCTACGCTGTCAATCGCCAAGCGTTTCCCTGAACTTTGGTAACCTCATTCTGC
B14: NRC3_random_hg19_378_o1 (dsDNA)
DNA 1: GCATCATCTTGCGTATGTTGATTGATGTCTCATGTGGCGATTGACAGCGTAGAATGAAGG
DNA 2: CCTTCATTCTACGCTGTCAATCGCCACATGAGACATCAATCAACATACGCAAGATGATGC
B15: NRC3_random_hg19_334_o1 (dsDNA)
DNA 1: GCTGCTGACTTGCTGGTTAGAGGGAACACATTCCCAGCGATTGACAGCGTAGAATGAAGG
DNA 2: CCTTCATTCTACGCTGTCAATCGCTGGGAATGTGTTCCCTCTAACCAGCAAGTCAGCAGC
B16: NRC3_wobSeed101_DR4_C13T_o1 (dsDNA)
DNA 1: GCCCTTACGGGTTACTCCAGGTTATAGCATCGGAGTGCGATTGACAGCGTAGAATGAAGG
DNA 2: CCTTCATTCTACGCTGTCAATCGCACTCCGATGCTATAACCTGGAGTAACCCGTAAGGGC
B17: NRC3_wobSeed113_DR4_T12A_o1 (dsDNA)
DNA 1: GCATATGTAGGATAGCTGGGGTCATTCAGACTAGGCGCGATTGACAGCGTAGAATGAAGG
DNA 2: CCTTCATTCTACGCTGTCAATCGCGCCTAGTCTGAATGACCCCAGCTATCCTACATATGC
B18: NRC3_wobSeed98_DR4_A28C_o1 (dsDNA)
DNA 1: GCACTAGTTGGTCAGCTGAGGTCACACCCAATTCGGGCGATTGACAGCGTAGAATGAAGG
DNA 2: CCTTCATTCTACGCTGTCAATCGCCCGAATTGGGTGTGACCTCAGCTGACCAACTAGTGC
B19: NRC3_wobSeed120_DR4_G16T_o1 (dsDNA)
DNA 1: GCCCGAGTAGGTTACTAGGGGGCATTCAGTGCGAATGCGATTGACAGCGTAGAATGAAGG
DNA 2: CCTTCATTCTACGCTGTCAATCGCATTCGCACTGAATGCCCCCTAGTAACCTACTCGGGC
B20: NRC3_wobSeed120_DR4_T8G_o1 (dsDNA)
DNA 1: B19 DNA 1 with T8G, T16G
DNA 2: B19 DNA 2 with A45C, A53C
B21: NRC3_wobSeed97_DR4_G16T_o1 (dsDNA)
DNA 1: GCCAAACTAGGTCACTAAAGGTCAAAGTCGAATGACGCGATTGACAGCGTAGAATGAAGG
DNA 2: CCTTCATTCTACGCTGTCAATCGCGTCATTCGACTTTGACCTTTAGTGACCTAGTTTGGC

Where a chain is given by its changes, count along the chain named.

RARg:RXRa, sequence (P13631 whole entry, chain 1 of 2): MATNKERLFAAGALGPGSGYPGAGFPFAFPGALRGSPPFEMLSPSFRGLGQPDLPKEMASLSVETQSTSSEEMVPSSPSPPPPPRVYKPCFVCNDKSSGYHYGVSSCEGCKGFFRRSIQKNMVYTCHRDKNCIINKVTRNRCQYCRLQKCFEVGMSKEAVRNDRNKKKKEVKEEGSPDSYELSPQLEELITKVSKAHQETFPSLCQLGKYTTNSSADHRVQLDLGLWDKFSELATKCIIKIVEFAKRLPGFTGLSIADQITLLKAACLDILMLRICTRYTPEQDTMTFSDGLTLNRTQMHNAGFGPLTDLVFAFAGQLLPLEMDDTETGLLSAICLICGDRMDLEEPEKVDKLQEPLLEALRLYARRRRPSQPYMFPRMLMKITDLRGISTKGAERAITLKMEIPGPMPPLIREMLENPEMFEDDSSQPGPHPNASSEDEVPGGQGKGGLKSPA
RARg:RXRa, sequence (P19793 whole entry, chain 2 of 2): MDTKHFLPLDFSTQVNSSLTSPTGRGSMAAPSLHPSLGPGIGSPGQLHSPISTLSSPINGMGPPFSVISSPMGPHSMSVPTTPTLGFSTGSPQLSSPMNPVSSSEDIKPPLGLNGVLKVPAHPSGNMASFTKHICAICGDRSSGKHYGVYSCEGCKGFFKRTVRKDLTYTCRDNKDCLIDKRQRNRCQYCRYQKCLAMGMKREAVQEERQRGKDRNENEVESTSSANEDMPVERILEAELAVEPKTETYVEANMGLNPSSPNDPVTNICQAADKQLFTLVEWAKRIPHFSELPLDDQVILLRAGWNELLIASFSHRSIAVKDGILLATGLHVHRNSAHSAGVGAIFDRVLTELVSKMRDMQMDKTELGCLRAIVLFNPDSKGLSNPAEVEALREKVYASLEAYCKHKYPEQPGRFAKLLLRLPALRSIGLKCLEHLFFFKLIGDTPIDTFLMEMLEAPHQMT
VDR:RXRa, sequence (P11473 whole entry, chain 1 of 2): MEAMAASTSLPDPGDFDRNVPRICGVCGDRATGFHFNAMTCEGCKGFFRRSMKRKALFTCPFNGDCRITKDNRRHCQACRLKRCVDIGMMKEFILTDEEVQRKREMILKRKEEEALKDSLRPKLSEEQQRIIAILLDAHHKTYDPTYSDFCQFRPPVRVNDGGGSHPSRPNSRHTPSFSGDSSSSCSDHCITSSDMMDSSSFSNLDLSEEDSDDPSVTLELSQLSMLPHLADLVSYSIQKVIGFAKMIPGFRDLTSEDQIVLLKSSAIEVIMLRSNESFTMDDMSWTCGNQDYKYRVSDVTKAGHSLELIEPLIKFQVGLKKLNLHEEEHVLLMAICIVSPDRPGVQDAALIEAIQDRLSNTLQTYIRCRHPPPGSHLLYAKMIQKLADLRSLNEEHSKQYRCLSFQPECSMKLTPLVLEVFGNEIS
VDR:RXRa, sequence (P19793 whole entry, chain 2 of 2): as the sequence (P19793 whole entry, chain 2 of 2) above
LXRa:RXRa, sequence (Q13133 whole entry, chain 1 of 2): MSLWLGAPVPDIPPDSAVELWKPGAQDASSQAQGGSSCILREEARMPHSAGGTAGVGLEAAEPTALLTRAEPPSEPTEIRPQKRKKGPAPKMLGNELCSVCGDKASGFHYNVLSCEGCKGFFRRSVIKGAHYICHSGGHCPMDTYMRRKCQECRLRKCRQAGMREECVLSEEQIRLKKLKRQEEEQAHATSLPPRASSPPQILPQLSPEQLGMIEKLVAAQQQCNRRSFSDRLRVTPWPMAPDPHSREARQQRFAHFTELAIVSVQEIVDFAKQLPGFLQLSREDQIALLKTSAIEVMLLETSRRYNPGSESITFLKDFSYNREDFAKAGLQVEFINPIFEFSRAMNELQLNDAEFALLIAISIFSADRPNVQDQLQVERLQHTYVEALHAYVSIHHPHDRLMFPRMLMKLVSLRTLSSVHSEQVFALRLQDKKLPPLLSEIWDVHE
LXRa:RXRa, sequence (P19793 whole entry, chain 2 of 2): as the sequence (P19793 whole entry, chain 2 of 2) above
LXRb:RXRa, sequence (P55055 whole entry, chain 1 of 2): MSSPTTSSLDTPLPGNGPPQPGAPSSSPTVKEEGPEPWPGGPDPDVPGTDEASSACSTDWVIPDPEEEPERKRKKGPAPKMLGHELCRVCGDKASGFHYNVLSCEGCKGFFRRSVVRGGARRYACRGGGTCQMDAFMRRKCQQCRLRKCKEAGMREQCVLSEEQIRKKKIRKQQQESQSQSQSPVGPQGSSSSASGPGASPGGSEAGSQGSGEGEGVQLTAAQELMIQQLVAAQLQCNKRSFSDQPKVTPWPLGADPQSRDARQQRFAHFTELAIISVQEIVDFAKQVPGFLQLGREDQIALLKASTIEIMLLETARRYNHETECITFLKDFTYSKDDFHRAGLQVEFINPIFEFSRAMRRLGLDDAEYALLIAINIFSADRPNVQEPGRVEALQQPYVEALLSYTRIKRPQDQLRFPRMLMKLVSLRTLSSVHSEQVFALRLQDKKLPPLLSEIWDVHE
LXRb:RXRa, sequence (P19793 whole entry, chain 2 of 2): as the sequence (P19793 whole entry, chain 2 of 2) above
RARb:RXRa, sequence (P10826 whole entry, chain 1 of 2): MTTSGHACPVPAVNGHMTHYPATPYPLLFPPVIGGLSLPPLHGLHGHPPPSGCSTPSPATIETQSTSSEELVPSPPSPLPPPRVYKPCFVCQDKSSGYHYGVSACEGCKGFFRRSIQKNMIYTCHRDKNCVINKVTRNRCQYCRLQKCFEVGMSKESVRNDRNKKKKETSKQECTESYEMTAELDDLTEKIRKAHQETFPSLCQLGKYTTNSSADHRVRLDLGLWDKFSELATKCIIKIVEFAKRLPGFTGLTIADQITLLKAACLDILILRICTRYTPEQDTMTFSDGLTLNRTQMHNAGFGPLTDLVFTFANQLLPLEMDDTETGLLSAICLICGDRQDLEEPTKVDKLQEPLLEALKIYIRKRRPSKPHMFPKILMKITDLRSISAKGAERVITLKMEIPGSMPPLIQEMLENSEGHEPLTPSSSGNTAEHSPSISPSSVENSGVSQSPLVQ
RARb:RXRa, sequence (P19793 whole entry, chain 2 of 2): as the sequence (P19793 whole entry, chain 2 of 2) above

In the first data set the target is RXRa (Homo sapiens, UniProt P19793). Kind of data set: no ligand; PBM; 180 nM; PBS pH 7.4, 2% milk, 0.02% Triton X-100, 1 mM DTT, BSA, 0.4 mg/ml salmon testes DNA. The note with it: tags: His cleaved; chain copies: 2; label: surface-attached array probe.
RXRa, sequence (P19793 whole entry): as the sequence (P19793 whole entry, chain 2 of 2) above
With B1, the binding signal was -0.61 PBM z-score against 500 random probes.
For B2, the binding signal was -0.01 PBM z-score against 500 random probes.
The same measure, in the same setting: with B3 the figure was 0.29 PBM z-score against 500 random probes.
For the molecule B4, the binding signal is 0.27 PBM z-score against 500 random probes.

In another data set the target is RARb:RXRa (Homo sapiens, UniProt P10826;P19793 full;full). The data set is described as follows: no ligand; PBM; 270 nM : 90 nM RXRa; PBS pH 7.4, 2% milk, 0.02% Triton X-100, 1 mM DTT, BSA, 0.4 mg/ml salmon testes DNA. The note with it: tags: His kept;His cleaved; copies: 1;1; label: surface-attached array probe. The procedure, abridged:
(§1)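 Ligand-free nuclear receptor dimers were bound for 1 h to custom Agilent 4×180K protein-binding microarrays. Detection used antibodies against each partner (one per run). Binding z-scores rest on regression-normalized fluorescence, with random background probes as the reference.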
Regarding B2, the binding signal is -0.1 PBM z-score against 500 random probes.
On the same count and under the same terms, as for B4, the figure is -0.16 PBM z-score against 500 random probes.

In the next data set the target is VDR:RXRa (Homo sapiens, UniProt P11473;P19793 full;full). The data set is described as above. The note with it: tags: His kept;His cleaved; copies: 1;1; label: surface-attached array probe. The procedure, abridged:
as §1
On to B5, for which the binding signal is 4.12 PBM z-score against 500 random probes.
Same read-out and setting: as for B6, the figure is -0.44 PBM z-score against 500 random probes.
Same read-out and setting: as for B7, the figure is -0.21 PBM z-score against 500 random probes.
Same read-out and setting: with B8 the figure was 0.14 PBM z-score against 500 random probes.
On to B9, for which the binding signal is -0.07 PBM z-score against 500 random probes.
On the same count and under the same terms, with B10 the figure was -0.13 PBM z-score against 500 random probes; with B11, -0.71 PBM z-score against 500 random probes.

In a further data set the target is LXRa:RXRa (Homo sapiens, UniProt Q13133;P19793 full;full). Described as above. The note with it: tags: His kept;His cleaved; copies: 1;1; label: surface-attached array probe. In outline:
as §1
In the case of B1, the binding signal was -1 PBM z-score against 500 random probes.
Same read-out and setting: as for B5, the figure is 4.12 PBM z-score against 500 random probes; as for B6, -0.64 PBM z-score against 500 random probes.
With B12, the binding signal was 8.57 PBM z-score against 500 random probes.
Take B7: the binding signal is 0.42 PBM z-score against 500 random probes.
For B2, the binding signal was -0.13 PBM z-score against 500 random probes.
Still for that read-out and setting: as for B13, the figure is 8.81 PBM z-score against 500 random probes; as for B3, 0.25 PBM z-score against 500 random probes; as for B8, 0.28 PBM z-score against 500 random probes.
For the molecule B14, the binding signal was -0.34 PBM z-score against 500 random probes.
For the molecule B15, the binding signal is -0.52 PBM z-score against 500 random probes.
For B16, the binding signal is 8.39 PBM z-score against 500 random probes.
On the same count and under the same terms, as for B17, the figure is 3.41 PBM z-score against 500 random probes; as for B4, 0.05 PBM z-score against 500 random probes.
Consider B18, for which the binding signal was 3.12 PBM z-score against 500 random probes.
On to B9, for which the binding signal is -0.55 PBM z-score against 500 random probes.
The same measure, in the same setting: with B10 the figure was 0.33 PBM z-score against 500 random probes; with B19, 8.51 PBM z-score against 500 random probes; with B20, 8.32 PBM z-score against 500 random probes.
The same measure, in the same setting: as for B11, the figure is -0.67 PBM z-score against 500 random probes; as for B21, 9.5 PBM z-score against 500 random probes.

A further data set deals with PPARa:RXRa (Homo sapiens, UniProt Q07869;P19793 full;full). The data set is described as above. The note with it: tags: GST kept;His cleaved; copies: 1;1; label: surface-attached array probe. The procedure, abridged: as §1
PPARa:RXRa, sequence (Q07869 whole entry, chain 1 of 2): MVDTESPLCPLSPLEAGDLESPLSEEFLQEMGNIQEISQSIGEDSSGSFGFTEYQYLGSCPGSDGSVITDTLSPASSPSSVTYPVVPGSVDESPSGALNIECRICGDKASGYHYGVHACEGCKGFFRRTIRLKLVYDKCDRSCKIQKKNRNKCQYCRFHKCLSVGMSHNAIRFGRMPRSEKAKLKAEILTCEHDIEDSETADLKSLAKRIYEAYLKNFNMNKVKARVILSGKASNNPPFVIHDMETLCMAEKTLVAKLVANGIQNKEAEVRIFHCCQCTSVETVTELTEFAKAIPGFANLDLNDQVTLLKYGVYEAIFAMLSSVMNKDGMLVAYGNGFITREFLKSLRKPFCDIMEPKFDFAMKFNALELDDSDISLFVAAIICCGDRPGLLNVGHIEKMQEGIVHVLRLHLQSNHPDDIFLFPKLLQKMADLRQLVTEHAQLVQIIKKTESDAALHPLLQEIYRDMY
PPARa:RXRa, sequence (P19793 whole entry, chain 2 of 2): as the sequence (P19793 whole entry, chain 2 of 2) above
Take B3: the binding signal was 0.24 PBM z-score against 500 random probes.
B19: the binding signal was 3.42 PBM z-score against 500 random probes.
The same measure, in the same setting: with B11 the figure was -0.65 PBM z-score against 500 random probes.

The next data set has as its target LXRb:RXRa (Homo sapiens, UniProt P55055;P19793 full;full). Described as above. The note with it: tags: His kept;His cleaved; copies: 1;1; label: surface-attached array probe. The procedure, abridged:
as §1
As for B12, the binding signal is 7.27 PBM z-score against 500 random probes.
Still for that read-out and setting: as for B13, the figure is 6.78 PBM z-score against 500 random probes; as for B14, -0.13 PBM z-score against 500 random probes; as for B15, -0.46 PBM z-score against 500 random probes.
As for B16, the binding signal was 6.25 PBM z-score against 500 random probes.
Same read-out and setting: as for B17, the figure is 3.83 PBM z-score against 500 random probes.
The same measure, in the same setting: with B18 the figure was 3.3 PBM z-score against 500 random probes; with B19, 7.83 PBM z-score against 500 random probes.
The same measure, in the same setting: as for B20, the figure is 7.6 PBM z-score against 500 random probes.
For the molecule B21, the binding signal is 8.55 PBM z-score against 500 random probes.

For another data set, the target named is FXR:RXRa (Homo sapiens, UniProt Q96RI1;P19793 full;full). Described as above. The note with it: tags: His kept;His cleaved; copies: 1;1; label: surface-attached array probe. The procedure, abridged: as §1
FXR:RXRa, sequence (Q96RI1 whole entry, chain 1 of 2): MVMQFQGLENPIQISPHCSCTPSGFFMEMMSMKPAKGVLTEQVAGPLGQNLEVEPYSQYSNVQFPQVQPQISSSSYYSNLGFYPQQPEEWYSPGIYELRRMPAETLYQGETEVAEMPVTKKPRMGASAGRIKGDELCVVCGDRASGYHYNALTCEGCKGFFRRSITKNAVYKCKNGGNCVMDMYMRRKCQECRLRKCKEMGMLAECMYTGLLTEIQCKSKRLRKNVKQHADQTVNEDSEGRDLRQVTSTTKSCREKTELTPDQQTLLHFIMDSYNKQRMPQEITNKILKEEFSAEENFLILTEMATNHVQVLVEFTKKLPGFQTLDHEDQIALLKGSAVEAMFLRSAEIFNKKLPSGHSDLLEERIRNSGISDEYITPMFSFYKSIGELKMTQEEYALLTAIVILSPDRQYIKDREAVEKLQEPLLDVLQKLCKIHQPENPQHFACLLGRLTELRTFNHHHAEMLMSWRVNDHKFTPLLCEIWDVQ
FXR:RXRa, sequence (P19793 whole entry, chain 2 of 2): as the sequence (P19793 whole entry, chain 2 of 2) above
On to B2, for which the binding signal was 0.11 PBM z-score against 500 random probes.

The target of another data set is RARg:RXRa (Homo sapiens, UniProt P13631;P19793 full;full). Described as above. The note with it: tags: His kept;His cleaved; copies: 1;1; label: surface-attached array probe. In outline:
as §1
For the molecule B1, the binding signal was -0.94 PBM z-score against 500 random probes.
Consider B6, for which the binding signal is -0.43 PBM z-score against 500 random probes.
Regarding B14, the binding signal is 0.26 PBM z-score against 500 random probes.
